# Source: the supplement of paper PMC9170038
# Columns and labels:
# MS2 coat protein [1] = experiment: apparent KD of MS2 coat protein, switch ON state; designed switch direction (-1 OFF switch, 1 ON switch): -1; higher = weaker reporter binding; details: FMN input: 0 or 200 uM; Eterna round: R93 (includes R88 designs)
# In short: (§1)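 Illumina sequencing clusters were used for on-chip transcription of designed RNA switches. Titration with SNAP-549-labelled MS2 coat protein followed, in twofold steps from 0.7 or 1.5 nM to 3 µM in 100 mM Tris-HCl pH 7.5, 80 mM KCl, 4 mM MgCl2, without or with constant ligand. Apparent KD is each design's median of fits to normalised cluster binding curves.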
# MS2 coat protein [2] = experiment: apparent KD of MS2 coat protein, switch OFF state (with FMN for OFF switches, without FMN for ON switches); designed switch direction (-1 OFF switch, 1 ON switch): -1; higher = weaker reporter binding; details: FMN input: 0 or 200 uM; Eterna round: R93 (includes R88 designs)
# In short: as §1
# MS2 coat protein [3] = experiment: apparent KD of MS2 coat protein; designed switch direction (-1 OFF switch, 1 ON switch): 1; higher = weaker reporter binding; details: Eterna round: R95
# In short: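 The apparent KD reported per design is the median over clusters of curve fits to normalised cluster fluorescence. The RNA switches were transcribed on Illumina chips by stalled E. coli RNA polymerase. SNAP-549-labelled MS2 coat protein was titrated from 0.7 or 1.5 nM, doubling up to 3 µM, in Tris-HCl pH 7.5 buffer containing KCl, MgCl2, BSA, DTT, tRNA and Tween-20, with no input, 200 uM small-molecule ligand, or an oligonucleotide input.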
Sequence,apparent KD of MS2 coat protein (MS2 coat protein [1]),apparent KD of MS2 coat protein (MS2 coat protein [2]),apparent KD of MS2 coat protein (MS2 coat protein [3]; input ligand: FMN 200 uM),"apparent KD of MS2 coat protein (MS2 coat protein [3]; input ligand: microRNA oligo, concentration not stated)",apparent KD of MS2 coat protein (MS2 coat protein [3]; input ligand: none)
AAAAAAAAAGGAUAUACAGGAGGUAAGGUCGAAAAAAAAAAACAUGAGGAUCACCCAUGUAGAAGGUUUAAAAA [Excls2-VIII],27 nM,30.6 nM,,,
AAAAAAAGAGGAUAUACGUACAUGUCGAAAGACGUGAAGGGACAUGAGGAUCACCCAUGUAGAAGGUUUAAAAA [Mat - Exclusion 2 - JL mod - D84],33.8 nM,15.8 nM,,,
AAAAAACAUGAGGAUCACCCAUGUAAGGAUAUGCAAGCAAGAAGAAAGAACAGAAAAAGCAGAAGGUACACACA [Amethyst 73],22.4 nM,25 nM,,,
"AAAAAACAUGAGGAUCACCCAUGUAAGGAUAUGCGAAAAUAAAAUAAAAUAAAAUAAAGCAGAAGGUACAAAAA [66%, Wbt, 1]",32.6 nM,37.7 nM,,,
AAAAAACAUGAGGAUCACCCAUGUAAGGAUAUGCUAAAAAACACGGAAAAACGUGAUAGCAGAAGGUACAAAAG [Mat - Exclusion 1 - Eli mod - D87],25.5 nM,31.2 nM,,,
"AAAAAACAUGAGGAUCACCCAUGUAAGGAUAUGCUCGUGCGAAAAGCACAAAAAAAGAGCAGAAGGUACAAAAA [66%, Wbt, 39]",15.2 nM,33.3 nM,,,
AAAAAACAUGAGGAUCACCCAUGUAAGGAUAUGUAAAAUAAAAGAAAAAUAAAGAAAAGCAGAAGGUAUAUGUA [JL wbt mod 17],29 nM,24.7 nM,,,
AAAAAACAUGAGGAUCACCCAUGUGAGGAUAUGACGUAAAUAAAGAAAGAAGAAAUCGUCAGAAGGCACACCUA [Disincluded 2 (MS2 Riboswitches)],25.7 nM,45.7 nM,,,
AAAAAACAUGAGGAUCACCCAUGUGAGGAUAUGCGAAAAAAAAAAUAAAAAAAAAAAAGUAGAAGGUACAAAAA [LROPPY Exclusion 1 - v08_deltaG=5.44],27.9 nM,26.9 nM,,,
AAAAAACAUGAGGAUCACCCAUGUUAGGAUAUGCUAUGGAAAAAUAAAAUAAAACAUAGCAGAAGGGACAAAAA [Mat - Exclusion 1 - Eli mod - D28],15 nM,38.3 nM,,,
AAAAAAGCAGGAUAUACGAACAUGUCAAAAGACGUGAAGGGACAUGAGGAUCACCCAUGUAGAAGGGUUAAAAA [JL Stem Breaker 5],198 nM,53.6 nM,,,
"AAAAAGAGAGGAUAUACAUGAGGAUCACCCAUGUGACACAAAAAAAAAAAAAAAAAAUGUAGAAGGCUCAAAAA [65%, Moding Exclusion3-cac2, 18]",35.5 nM,97.2 nM,,,
AAAAAGAUAGGAUAUACAUGAAAAAAAAAAAAAAAAAAAAGACAUGAGGAUCACCCAUGUAGAAGGGUCAAAAA [water's exclusion 2 2nd],50.3 nM,42.1 nM,,,
AAAAAGCGAGGAUAUACAUGAGGAUCACCCAUGUGAAAGUCGAAAAAAAAGACAAAAAGUAGAAGGCGCAAAAA [Banishment 7 - Jieux - Exclusion 3],18.3 nM,22.8 nM,,,
AAAAAGCGAGGAUAUACGAGUCAAAGAAAAGACAAGGAGAAACAUGAGGAUCACCCAUGUAGAAGGCGCAAAAA [Fiskers exclusion D2],21.8 nM,25.3 nM,,,
AAAAAGCUAGGAUAUACGAAAAAAAAGGGUAGAAAAAAAACACAUGAGGAUCACCCAUGUAGAAGGAGCAAAAA [Mat - Exclusion 2 - Tesla mod - D33],45.7 nM,84.6 nM,,,
AAAAAGGCAGGAUAUGCAUACCCACGGAAAAAAAGGCUGGGACAUGAGGAUCACCCAUGUAGAAGGGCCAAAAA [Dora Explored 12 - Jieux - Exclusion 2],21.5 nM,14.5 nM,,,
AAAAAGGCAGGAUAUGCAUACCCACGGAAAAAAAGGUUGGGACAUGAGGAUCACCCAUGUAGAAGGGCCAAAAA [Dora Explored 13 - Jieux - Exclusion 2],43.4 nM,22.4 nM,,,
AAAAAGGGAGGAUAUGCAUACACACAAAAAAAAAAAAAAAAACAUGAGGAUCACCCAUGUAGAAGGCCCAAAAA [Dora Explored 4 - Jieux - Exclusion 2],21.1 nM,14.4 nM,,,
AAAAAGUCAGGAUAUACAUGAGGAUCACCCAUGUAGCAUACGAAAAAGAGUGUGCAGUGUAGAAGGGACAAAAA [Exclusion3-cac3],19.5 nM,21.2 nM,,,
AAAAAGUCAGGAUAUGCGAAGGCGUCUGAUAGACGAGGCUAGCAGAAGGGACAUGAGGAUCACCCAUGUAAAGA [Mat - Exclusion 4 - D82],50 nM,51.3 nM,,,

Sequence,apparent KD of MS2 coat protein (MS2 coat protein [1]),apparent KD of MS2 coat protein (MS2 coat protein [2]),apparent KD of MS2 coat protein (MS2 coat protein [3]; input ligand: FMN 200 uM),"apparent KD of MS2 coat protein (MS2 coat protein [3]; input ligand: microRNA oligo, concentration not stated)",apparent KD of MS2 coat protein (MS2 coat protein [3]; input ligand: none)
AAAAAGUCAGGAUAUGUAGCAAAAGGUGAUCAAAAAAAGCUACAGAAGGGACAUGAGGAUCACCCAUGUAAAAA [Ex4: 937],139 nM,156 nM,,,
AAAAAGUGAGGAUAUACAUGAGGAUCACCCAUGUGAAAUCGGAAAAAAAACGAAAAAAGUAGAAGGCACAAAAA [Fiskers Exclusion 3 D3],19.1 nM,22.1 nM,,,
AAAAAGUGAGGAUAUACAUGAGGAUCACCCAUGUGUUAAAAAAAAAGGGUGGAAGAAAGUAGAAGGCACCAAAA [Ex 3 May 50],33.7 nM,22.9 nM,,,
AAAAAGUGAGGAUAUACGUUGAAAAAAAAAAAAAAAAAGGCGUAGAAGGCACAUGAGGAUCACCCAUGUAAAAA [Ex4 Malc#5],56 nM,77.4 nM,,,
AAAAAGUGAGGAUAUCCAGAUAAAAAAACGAAAAAAAAUCUGGAGAAGGCACAUGAGGAUCACCCAUGUAUGAC [Ex 4 May 6],32.7 nM,38.2 nM,,,
AAAAAGUGAGGAUAUGGUAAAAAAAAAAAAAAAAAAAACCUCCAGAAGGCACAUGAGGAUCACCCAUGUAAAAA [Jolly's Folly 2 - Jieux - Exclusion 4],75.8 nM,34.6 nM,,,
AAAAAGUGAGGAUAUGUCAAAGGUCACGAAAGUGACAAAGGACAGAAGGCACAUGAGGAUCACCCAUGUAAAAA [Fiskers Exclusion 4D1 65% - Early G segment 1],37.4 nM,43.6 nM,,,
AAAAAGUGAGGAUAUGUCAAAGGUCACGAAAGUGACAAAGGACAGAAGGCACAUGAGGAUCACCCAUGUGGAAA [Fiskers Exclusion 4D1 65% - Early + late G segment 3],27.3 nM,27.6 nM,,,
AAAAAUAGAGGAUAUACAUGAAAAAAAAAAAAAAAAAAAAAACAUGAGGAUCACCCAUGUAGAAGGCUAAAAAA [double AU!],30.8 nM,29.2 nM,,,
AAAAAUCGAGGAUAUACAUGAGGAUCACCCAUGUCAAAAAAUGACUACACAAAAGAAAGUAGAAGGCGAUAAAA [Ex 3 May 17],28.5 nM,31 nM,,,
AAAAAUCGAGGAUAUACAUGAGGAUCACCCAUGUUAGAAAAUGAUUACACAAAAGAAAGUAGAAGGCGAUAAAA [Ex 3 May 20],27.9 nM,23.4 nM,,,
AAAAAUGGAGGAUAUACAUGAGGAUCACCCAUGUGUAAAAAAAAUUACACAAAAGAAAGUAGAAGGCCAUAAAG [Mat - Exclusion 3 - Mayanna mod - D108],59.3 nM,139 nM,,,
AAAAAUGGAGGAUAUACAUGAGGAUCACCCAUGUGUAACUAUACAAAACACAAAAAAAGUAGAAGGCCAAAAAA [Gilly Gone Silly 7 - Jieux - Exclusion 3],20.1 nM,19.3 nM,,,
AAAAAUGGAGGAUAUACAUGAGGAUCACCCAUGUGUAACUAUACUAAGCGCUCCUCACGUAGAAGGCCAAAAAA [Gilly Gone Silly 14 - Jieux - Exclusion 3],74.1 nM,31.4 nM,,,
AAAAAUUGAGGAUAUACAUGAGGAUCACCCAUGUUAGACCUAAAAAAAGGGAAAGAAAGUAGAAGGCAAUAAAA [Ex 3 May 28],14.6 nM,18.8 nM,,,
AAAACGGUAGGAUAUACAGUCCGUUGUCGAAUGAUGAAAAGACAUGAGGAUCACCCAUGUAGAAGGACCGAAAA [Bienor],36.5 nM,138 nM,,,
AAAACGGUAGGAUAUACAUGAGGAUCACCCAUGUUAAAUUUAAAAAUAAAAUUAAAAUGUAGAAGGACCAAAAA [Mai Tai1],31.5 nM,35 nM,,,
AAAACGGUAGGAUAUACGAUUGGGAACUAGACCGAGGAACCACAUGAGGAUCACCCAUGUAGAAGGGCCAAAAA [Ex2 Malc#14],16.9 nM,16.7 nM,,,
AAAACGUGAGGAUAUGCACCAAAAAAGGAAAAACGGGUACGACAUGAGGAUCACCCAUGUAGAAGGCACGAAAA [Frodo Flailing 9 - Jieux - Exclusion 2],40.8 nM,39 nM,,,
UUUUUUAAGACGAGACAAGCUUUUUGAUCACAUGAGGAUCACCCAUGUCUCGUCUUAUUUUUUUUUUUUUUUUUUUU [BA Sensor hsa-mir-208a - 2 - 3] (puzzle: Sensor for hsa-mir-208a),,,21.4 nM,5.76 nM,16.9 nM
